This note sets out measurements from PMC3347556.

The series deals with Lys65 (UniProt position 65, ICSVSKQFTCA). Nature of the series: kinetics. The note with it: 25 °C, not stated (0.1 M Tris-HCl buffer), Free enzyme (Vmax/KM profile) with D-Ala-pNA as substrate.

As a reminder, the pKa is the pH at which an ionisable group is half protonated. Read a high pKa as a weaker acid or stronger base.

Take “D-aminopeptidase (DAP) (Ochrobactrum anthropi)”: the pKa worked out at 7.4.
